This is an account of results in US20080286819A1.

The Kd is the concentration at which binding is half-saturated. Higher therefore signals weaker binding.

Test [1] deals with Human soluble FcγRIIIA^158F (human) (UniProt P08637). Put plainly: SPR, soluble human Fc-receptor. A general note: In SPR one partner is held on a chip, and binding of the other changes the refractive index at the surface.
The target of test [2] is Human soluble FcγRIIB (human) (UniProt P31994). Kind of test: SPR, soluble human Fc-receptor.
The target in test [3] is Human soluble FcγRIIA^131H (human) (UniProt P12318). Kind of test: SPR, soluble human Fc-receptor.
Test [4] addresses Human soluble FcγRIIIA^158F (human) (UniProt P08637). Put plainly: ratio of SPR affinities; reference human FcγRIIB.
For test [5], the target named is Human soluble FcγRIIA^131H (human) (UniProt P12318). Put plainly: ratio of SPR affinities; reference human FcγRIIB.
The target of test [6] is Mouse soluble FcγRIIB (mouse) (UniProt P08101). Kind of test: SPR (Biacore), antibody immobilized, soluble FcγR injected.
Test [7] has as its target Mouse soluble FcγRIII (mouse) (UniProt P08508). The description is as above.
Test [8] deals with Human soluble FcγRIIIA^158F (human) (UniProt P08637). The description is as above.
Test [9] concerns the target Human soluble FcγRIIA^131H (human) (UniProt P12318). The description is as above.
Test [10] concerns the target Mouse soluble FcγRI (mouse) (UniProt P26151). The description is as above.
Test [11] deals with Human soluble FcγRIIA^131R (human) (UniProt P12318). The description is as above.
The target of test [12] is Mouse soluble FcγRIV (mouse). Described as above.
Test [13] concerns the target Mouse soluble FcγRIIB (mouse) (UniProt P08101). Kind of test: SPR (Biacore), antibody immobilized; + = detectable but very low binding.
Test [14] deals with Mouse soluble FcγRIII (mouse) (UniProt P08508). The test is described as above.
Test [15] concerns the target Human soluble FcγRIIIA^158F (human) (UniProt P08637). Described as above.
The target of test [16] is Mouse soluble FcγRIV (mouse). Described as above.
Test [17] has as its target Human soluble FcγRIIB (human) (UniProt P31994). Put plainly: SPR (Biacore), antibody immobilized, soluble FcγR injected.
The target in test [18] is Human soluble FcγRIIA^131H (human) (UniProt P12318). Put plainly: SPR (Biacore), antibody immobilized; + = detectable but very low binding.
In test [19] the target is Human soluble FcγRIIA^131R (human) (UniProt P12318). The description is as above.
For test [20], the target named is Human soluble FcγRIIB (human) (UniProt P31994). Put plainly: SPR; reference human FcγRIIIA and FcγRIIA.
In test [21] the target is Mouse soluble FcγRIIB (mouse) (UniProt P08101). Put plainly: SPR; reference mouse FcγRIII.
Test [22] addresses Mouse soluble FcγRIII (mouse) (UniProt P08508). Put plainly: ratio of SPR affinities; reference mouse FcγRIIB.
Test [23] addresses Mouse soluble FcγRIV (mouse). Put plainly: SPR; reference mouse FcγRIIB.
The target of test [24] is Mouse soluble FcγRIV (mouse). Kind of test: ratio of SPR affinities; reference mouse FcγRIIB.

Chain of UniProt P08637 (P08637 17-208): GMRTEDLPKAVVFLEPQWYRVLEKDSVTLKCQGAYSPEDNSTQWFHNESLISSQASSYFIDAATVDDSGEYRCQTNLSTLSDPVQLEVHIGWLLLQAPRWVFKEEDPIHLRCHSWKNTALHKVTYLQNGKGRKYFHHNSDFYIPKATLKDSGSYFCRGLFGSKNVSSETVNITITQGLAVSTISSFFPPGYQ
Chain of UniProt P08101 (P08101 30-210): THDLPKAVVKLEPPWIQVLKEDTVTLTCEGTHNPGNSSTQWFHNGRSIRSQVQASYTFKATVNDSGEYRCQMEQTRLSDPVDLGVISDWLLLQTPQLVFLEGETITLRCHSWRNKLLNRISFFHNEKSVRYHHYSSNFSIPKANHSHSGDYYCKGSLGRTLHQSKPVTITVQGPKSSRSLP
Chain of UniProt P26151 (P26151 25-297): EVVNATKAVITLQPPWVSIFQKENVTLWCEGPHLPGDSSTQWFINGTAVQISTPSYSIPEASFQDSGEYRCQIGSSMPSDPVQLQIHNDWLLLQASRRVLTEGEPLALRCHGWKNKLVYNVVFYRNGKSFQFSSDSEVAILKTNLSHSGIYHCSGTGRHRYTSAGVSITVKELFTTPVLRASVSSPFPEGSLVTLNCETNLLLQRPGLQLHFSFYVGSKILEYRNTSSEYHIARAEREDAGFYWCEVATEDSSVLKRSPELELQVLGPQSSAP
Chain of UniProt P08508 (P08508 31-215): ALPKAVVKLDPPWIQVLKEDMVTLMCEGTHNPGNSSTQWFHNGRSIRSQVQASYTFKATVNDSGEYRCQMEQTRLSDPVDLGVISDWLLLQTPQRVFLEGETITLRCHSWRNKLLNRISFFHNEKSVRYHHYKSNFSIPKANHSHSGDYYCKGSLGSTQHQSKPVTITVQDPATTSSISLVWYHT
Chain of UniProt P31994 (P31994 43-217): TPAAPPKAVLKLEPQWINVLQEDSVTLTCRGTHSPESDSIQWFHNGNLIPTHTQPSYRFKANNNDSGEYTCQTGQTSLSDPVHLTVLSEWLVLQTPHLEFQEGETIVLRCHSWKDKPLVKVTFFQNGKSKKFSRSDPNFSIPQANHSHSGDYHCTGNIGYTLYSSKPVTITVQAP

In test [1], “FITC-IgG1-Fucose (human IgG1 Fc-switch variant of the 4-4-20 antibody lacking fucose)” returned a Ka of 5.97e+06 M⁻¹ and a dissociation constant (Kd) of 0.168 µM. In test [2], the Ka was determined as 78100 M⁻¹ and the Kd turned out to be 12.8 µM.

Turning to “FITC-IgG2-Fucose (human IgG2 Fc-switch variant of the 4-4-20 antibody lacking fucose)”, the results for the Ka in test [1], in test [3] and in test [2] were 144000 M⁻¹, 135000 M⁻¹ and 25400 M⁻¹, respectively. The Kd in [1] was found to be 6.93 µM; in test [3] it was 7.4 µM; in [2], 39.4 µM. For the same substance, the A/I ratio IIIA/IIB (KA for FcγRIIIA over KA for FcγRIIB) in [4] is 5.67. In addition, the A/I ratio IIA/IIB (KA for FcγRIIA over KA for FcγRIIB) in test [5] stood at 5.31.

Regarding “hIgG1 (FITC-isotype switch variant, human Fc-switch variant of the 4-4-20 antibody)”, the Ka in test [6] worked out at 200000 M⁻¹; in test [7], 35000 M⁻¹; in [8], 430000 M⁻¹; in test [9], 380000 M⁻¹; in [10], 3.8e+06 M⁻¹; in test [11], 270000 M⁻¹. For the same substance, in [12], the Ka came out at 2.2e+06 M⁻¹.

Turning to “hIgG2 (FITC-isotype switch variant, human Fc-switch variant of the 4-4-20 antibody)”, the Ka in test [13] was less than 10000 M⁻¹; in [14] it was less than 10000 M⁻¹; in test [15], less than 10000 M⁻¹; in test [9], 120000 M⁻¹; in test [11] it was 21000 M⁻¹.

As to “hIgG3 (FITC-isotype switch variant) (antibody)”, the Ka is less than 10000 M⁻¹ in test [16]; 83000 M⁻¹ in [6]; 180000 M⁻¹ in [8]; 120000 M⁻¹ in [9]; 70000 M⁻¹ in test [17]; 1.2e+06 M⁻¹ in test [10]. Further, the Ka in [11] was 240000 M⁻¹.

Consider “hIgG4 (FITC-isotype switch variant) (antibody)”, for which the Ka is less than 10000 M⁻¹ in test [13]; less than 10000 M⁻¹ in [14]; less than 10000 M⁻¹ in [18]; less than 10000 M⁻¹ in test [19]; less than 10000 M⁻¹ in test [16]; 48000 M⁻¹ in test [17]. Moreover, the Ka in [10] worked out at 72000 M⁻¹. Also, in [20], the fold higher affinity than to FcγRIIIA and FcγRIIA is greater than 4.8 fold.

Turning to “mIgG1 (FITC-isotype switch variant) (antibody)”, the fold higher affinity than to FcγRIII in test [21] was determined as 10 fold. Besides, the Ka in [15] is less than 10000 M⁻¹; in [6], 3.3e+06 M⁻¹; in test [7], 310000 M⁻¹; in [9] it was 40000 M⁻¹; in test [17] it was 100000 M⁻¹; in test [11] it was 250000 M⁻¹. Further, the A/I (ratio of KA for the activating receptor FcγRIII to KA for the inhibitory FcγRIIB) in test [22] is 0.1.

On to “mIgG2a (FITC-isotype switch variant) (antibody)”, for which the Ka in [6] was 420000 M⁻¹; in test [7], 680000 M⁻¹; in test [9], 170000 M⁻¹; in test [17], 160000 M⁻¹; in test [10] it was 1.8e+08 M⁻¹; in test [11], 320000 M⁻¹. The same substance came in with a Ka in [12] of 2.9e+07 M⁻¹.

“mIgG2b (FITC-isotype switch variant) (antibody)” yielded a fold higher affinity than to FcγRIIB in [23] of 10 fold. Also, the A/I (ratio of KA for the activating receptor FcγRIV to KA for the inhibitory FcγRIIB) in [24] worked out at 7. For the same substance, the Ka was 2.2e+06 M⁻¹ in [6]; 640000 M⁻¹ in test [7]; 10000 M⁻¹ in test [8]; 120000 M⁻¹ in test [9]; 120000 M⁻¹ in test [17]; 91000 M⁻¹ in test [11]. In test [12], this substance had a Ka of 1.7e+07 M⁻¹.

Take “mIgG3 (FITC-isotype switch variant) (antibody)”: the Ka in test [15], in test [18] and in test [19] was less than 10000 M⁻¹ in each case.
